{"source": "paper PMC6544042", "about": "“Switching the Post-translational Modification of Translation Elongation Factor EF-P” (Frontiers in Microbiology, 2019)", "substrate": "Cc1cn([C@H]2C[C@H](O)[C@@H](COP(=O)(O)OP(=O)(O)O[C@H]3O[C@@H](C)[C@H](O)[C@@H](O)[C@H]3O)O2)c(=O)[nH]c1=O", "assay": "anti-rhamnosylarginine Western blot, band intensity, Michaelis-Menten fit", "type": "biochemical, Pseudomonas putida", "details": "2.5 μM unmodified EF-P of P. putida as acceptor, 0.1 μM EarP, 100 mM sodium phosphate pH 7.6, 30 °C, 20 s, commercial TDP-Rha"}
{"protein": "EarPPpu (Pseudomonas putida KT2440) (protein, C-terminal His6 tag kept; pBAD33-earPPpu, E. coli LMG194 host, Ni-NTA purified; GT-B fold, GT104 family) MKATWDIFCSVVDNYGDIGVTWRLARQLVAEHGLAVRLWVDDLNAFTPMCPGADATAAQQWQHGVDVRHWPAAWLPVAPADVVIGAFACQLPAAYVEAMRARPQPPLWLNLEYLSAEDWVEGCHGLPSPQPNGLRKVFFFPGFTDKTGGLLREGSLLARRDGFQQSAEARRAFLQGLGVDLVPGALLISLFAYENPQLGNWLDALATADQPCHLLVPQGRVVAGLSQWLGEGPLHVGDVRTRGALTVQVLPFVSQDDFDRLLWSCDFNAVRGEDSFVRAQWAGQPMLWHIYVQDENAHWEKLEAFLAHYRCGLSDDADAALLGLWRAWNMDFDMGQAWRAARQHWPELQQHARLWGARQAAQPDLATALVHFYRNSL", "values": [{"measurement": "Km", "value": 5, "unit": "µM"}]}
